Measured values: paper PMC9724675, “POPDC1 scaffolds a complex of adenylyl cyclase 9 and the potassium channel TREK‐1 in heart” (EMBO Reports, 2022)

Biological target: T1, POPDC1-Myc (Popeye domain-containing protein 1, Myc-tagged) (mouse, UniProt Q9ES83 1-358)
T1 construct: POPDC1 (Bves), mouse; construct described in Froese et al 2012 and Schindler et al 2016b; Mouse is stated for the BiFC constructs, which were made from the previously described tagged constructs; also called Myc-tagged POPDC1; BVES; source: HEK293 or COS-7, transfected, in cells or in lysate
T1 sequence (looked up): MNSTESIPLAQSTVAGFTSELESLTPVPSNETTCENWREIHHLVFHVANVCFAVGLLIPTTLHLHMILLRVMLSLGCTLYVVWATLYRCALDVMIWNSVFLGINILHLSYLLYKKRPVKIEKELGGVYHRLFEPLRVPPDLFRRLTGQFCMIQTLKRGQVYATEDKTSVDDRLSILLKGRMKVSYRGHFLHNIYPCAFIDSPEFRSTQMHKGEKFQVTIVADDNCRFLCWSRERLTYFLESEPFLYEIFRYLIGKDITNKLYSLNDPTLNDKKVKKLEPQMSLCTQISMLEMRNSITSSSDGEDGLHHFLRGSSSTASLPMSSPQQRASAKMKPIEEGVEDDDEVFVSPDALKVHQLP
Test: co-IP; IP-AC assay: HEK293 lysates expressing AC1 or AC8 with or without Myc-tagged POPDC1, immunoprecipitation with anti-MYC, AC activity stimulated with 100 μM calcium and 300 nM calmodulin
Conditions: partners not purified

- fold Ca2+/calmodulin-stimulated AC activity in the POPDC1 immunoprecipitate over IgG controls: 1.59 ± 0.05 fold
B1: nontagged AC1 (adenylyl cyclase 1) (enzyme)
chain: not shown
notes: adenylyl cyclase 1 (AC1), Ca2+/calmodulin-stimulated; the plasmid is not described; source: HEK293, transfected, in lysate
